Experimental data: patent US20240026407A1, “MODIFICATION OF SAPONINS” (GLAXOSMITHKLINE BIOLOGICALS SA, priority 2020, published 2024)

B1: 850 (protein, listed as Bifidobacterium scardovii)
chain: MSESTYPSVKDLTLEEKASLTSGGDVWHLQGVESKGIPGYMITDGPHGLRKSLASSAGETDLDASVPATCFPPAAGLSSSWNPELIRKVGEAMGEECIQEKVAVILGPGVNIKRNPLGGRCFEYWSEDPYLAGHEAIGIVEGVQSKGVGTSLKHFAANNQETDRLRISANIGPRALREIYLPAFEHIVKTAQPWTVMCSYNRINGVYSAQNRWLLTDVLRGEWGFEGIVMSDWGADHDRVASLNAGLNLEMPPSYTDDEIVHAARDGRIAPAQLDAMAQGMIDLVNRTRAAMSVDDYRFDVDAHDEVAHQAAVESIVMLKNDGAILPLDADAASGQKIAVIGEFARTPRYQGGGSSHITPTRMTSFLDALDERGIAAEFAPGFTLDLEPADPALEAQAVDAAKRADTVLMFLGLPEAAESEGFDRETLDIPAKQIALLDAVAAANDQVVVVLSNGSAVSVAPWAGRAKGILESWLLGQAGGPALADVIFGRTSPSGKLAQTIPMDINDDPSMVNWPGEEGHVDYGEGVFVGYRYYDTYGKAVGYPFGYGLSYATFEISKAAVARTGANAAVVTATVTNTSGVDGAETVQVYVAPGKADVARPRHELKGFVKVFLKAGESADVAIDLDERAFAYWSERYDDWHIESGEYAVEIGTSSRDIAATVTVALEGDGKTQPLTAWSTYGEWSSDPIGAKVMAAVAAAGEAGELPKLPDNAMMNMFLMAMPINSLPTLMSEGGKSITRFMLDEYARLTK
B2: 826 (protein)
chain: MSDYPSVNDLTLEEKAALTSGTNPWSLGNVAAKGLPNYTITDGPHGLRKAQNTESMDVEENVPATCFPPAAGMACSWNPELVERVGEAMGEECIQEQVAVILGPGVNIKRNPLGGRCFEYWSEDPYLAGHTAVGIVKGVQSKGVGTSLKHFAANNQETDRLRISATISPRAMREIYLPAFEYIVKTAQPWTVMCSYNKINGVFSSQNRWLLTDVLRGEWGFKGIVMSDWGAVSDRVAALNAGLNLEMPPSNTDDQIVAAAKDGRIPAAQLDEMAQGMIDLVAKARPAMSRDGYRYDVDAHNEVARQAAVESMVLLKNEDATLPVAKGAKIAVIGEFARTPRYQGAGSSLINPTKLTSFLDAIEERGVAADFAPGFTLDDAAQDPALTEQAVTAAQQADVVLLFLGLPAAYESEGFDRTTLDIPAKQVEVLDAVAAANPNVAVVLSNGSVVSMPWRGRAKAILETWLLGQAGGAALADVIFGDETPSGKLAQTIIDDVNDDPSAMNWPGEEGHVDYGEGVFVGYRYHDTFRKQVTYPFGYGLSYATFDVHDATVAKTGPRTAEVTVTVTNTSDVAGAETVQVYVAPPKAKVARPVHELKGFAKVALEPGESKNVTIALDDRAFAYWSERFDDWHVEGGTYTVEVGVSSRDIVSRIDVEIDDDGKIMNLDEWSTFGEWLDDPIGAPILQHVLDDMAKEAGHPVIPDSALMVMFLRSMPLRSLSVILGEAGEQVAANLTEAYRKATA
modifications: Bifidobacterium saeculare
B3: 879 (protein, listed as Morchella conica)
chain: MTVSPLPKDLQKKVNDVLDSLTLLEQVSLLAGKDFWRTVEIPGKVPSIKVTDGPSGARGQFFSGGTKAAFFPSGVSLAATFDPELITHIGNALGQETKTKAAQVLLAPTACNHRSPLGGRNFESFSEDPYLSGKLAASYISGVQAEGVAVTMKHFVANEQETKRFSVNEIIDERALREIYLKPFEIAVREAGPWGIMSSYNKVNAHHADLHPFSMKQVLRAEWGWDGLVMSDWGGTNSTAESLIAGLDLEMPGPTRRRGELLLKAVQDTNSSPELLAAIKTGARHVLELIARTGRWGKFQEAEEQAVDKLEHRELIRKTGAHGIVLLKNEGATLPIKREQIKSVAWIGPNANETIAGGGGSANLNPHYLTNPLESFTAAVEENDIKVAYEIGCQTEKWVRVFPVEEGRARTAPSATEGAPGLKVDFFGGRECSGECVASNVMTTSNIFLMDGKPPVLGDQDYSVRITTYIRPEATGEHVVGVGSIGPTKIYVDDKLLIDHTHWIELGELFFTSGSEEVTQKIHLEAGKWYKLVAETTSKSPEQKLPDMGNDNLDFASAIGIRLGIDAVRDVQEYIDRAATLAKKSDVAVVVVGMNNEWESEGYDRHTMALPGKQNELIEAVVKANPNTIVVNQSGCPVTMPWLDRVPAVLQAWYQGQEAGNALVDVLLGKVNPSGRLPITFPKRLEDNPSFGNFGDGGEKNQIAYTEGIYVGYRHYNSRDIPVLFPFGFGLSYTSFELGAPTVDQAAFEIGKKITVQVPVKNTGAIKGIETVQVYLAPKKSAVDRPKRELKGFAKIELEAGESGVARIELDHYAPGLFCEERKCWRALEGAYVVEVGRNVQEIDGSVEVAVEREYEWVF
B4: 868 (protein, listed as Dictyoglomus thermophilum)
chain: MKLEYKIPYRIERGEQTNFSPLFIRIISQGGKQMEKDIKKLISQMTLEEKASLCSGLDFWHTKPIERLGIPSIRMSDGPHGLRKEETMFSKTVPATCFPTAVTIAASWDKLLAEKMGKAIGEECQAENVQILLGPGINMKRSPLCGRNFEYYSEDPILAGELAAHFIKGVQSQGVGTSLKHFAANNQEHRRLTVDAIIDERTLREIYLTAFEKAVKEAKPWTVMCSYNKVNGTYASENEFLLTKVLREEWGFEGFVVSDWGAVNDRVKGLAAGLDLQMPYDGGNGDKKIIEAVKSGKLPEEVLDRAVERILKIVFKAIENKKENATYDKEAHHKLAREIARECFVLLKNENNILPLKKEGKIALIGAFAKKPQIQGGGSAHVNPTRVDDAVEEIKKLVGDKVEILYADGYHIEKDDVDEKLIEEAKEIAKKADVVVIFAGLPERYESEGFDRPHMKMPESHNRLIEEVAKVNSNLVVVLSNGAPIEMPWVDKPKAILETYRGGQAWGGAVADVLFGVVNPSGKLPESFPKKLSDNPSYLFFPGEDDRSEYREGIFIGYRYYDKKEMEVLFPFGYGLSYTTFEYSDLKLDKKEMKDDEVLKVSVKVKNTGKVKGKEIVQLYVRDVKSNYIRPEKELKGFEKVELEPGEEKEVVFYLDKRAFAFYNIDIKDWYVEDGEFEILIGKSSRDIVLKDKVFVKSTTKIKRHYHINSTIGDIMSDPEASAKFKHILEQFASAFPAFSSEEAIMNFAEMMKYMPLRNLIHFGQGKFTEEMLENLLKEINS

Columns and labels:
Assay type in all cases: biochemical, Quillaja saponaria
[1] = Experiment 5-1: screening of additional glucosidases for deglycosylation with purified QS-18 (0.04 mg/ml) at pH 7.5 and 30 deg C; conditions: pH 7.5, 30 degrees C, 18 hours, LCMS/MS
Method: The 94 additional genes, together with positive control (DNA encoding SEQ ID No. 262) and negative control, were transformed, expressed, lysed and reacted in the same manner as described above for Experiment 4-1, except the reaction was incubated at 30 degrees C. for 18 hours.
Samples were analysed by LCMS/MS according to the procedure in Experiment 4-1.

[2] = Experiment 5-2: screening of additional glucosidases for deglycosylation with QS-18 in crude bark extract (80%) at pH 6 and 35 deg C; conditions: CBE 80%, pH 6, 35 deg C, 18 hours; UV HPLC
Outline: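 Deglycosylation of QS-18 was monitored by UV HPLC after MeCN/AcOH quench with hexanophenone. The reaction ran 18 hours at 35 deg C, shaking, combining clarified pH 6 lysate with crude bark extract neutralised to pH 6 by NaOH.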

[3] = Experiment 5-3: screening of additional glucosidases for deglycosylation with QS-18 in treated bark extract (80%) at pH 6 and 35 deg C; conditions: TBE 80% (QS-21 approx. 4 g/L), pH 6, 35 deg C; UV HPLC
Method: Experiment 5-1 was repeated, replacing CBE with Treated Bark Extract (TBE) at pH 6. TBE was prepared from CBE by PVPP treatment and concentration, to provide TBE with a QS-21 concentration of approximately 4 g/L. TBE was adjusted to pH 6 by dropwise addition of 2M NaOH with stirring.

Molecule | Experiment 5-1 % conv [1] | Experiment 5-2 % conv [2] | Experiment 5-3 % conv [3]
B1 | 95.3% | <0.5% | <0.5%
B2 | 86.9% | 0.8% | 1.4%
B3 | 90.1% | <0.5% | <0.5%
B4 | 89.9% | <0.5% | <0.5%
